Assay [1] has as its target T1, hnRNP L RRM2 (Homo sapiens, UniProt P14866).
T1 construct: made in house; host or cells: Escherichia coli BL21 (DE3)
T1 sequence (P14866 189-286): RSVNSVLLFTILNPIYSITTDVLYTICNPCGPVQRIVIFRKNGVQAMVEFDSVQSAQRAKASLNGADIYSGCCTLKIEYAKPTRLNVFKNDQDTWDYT
Briefly: ITC of SETD2 peptides with hnRNP L RRM2. Format: binding. The note with it: ITC 20 °C, N.D. = No detectable interaction under the experiment conditions. How it is done: (§1) The hnRNP L_RRM2 fragment (residues189-286) was amplified from the human brain cDNA library and cloned into a modified pET28a (Novagen) vector without a thrombin protease cleavage site (termed p28a). All the mutants were generated using a MutantBEST kit (Takara) and verified via DNA sequencing. All the proteins were expressed in Escherichia coli BL21 (DE3) cells. The cells were cultured at 37 °C in LB medium, until the OD600 reached about 0.8. Then the proteins were induced with 0.2 mM isopropyl β-D-1-thiogalactopyranoside (IPTG). After induction at 16 °C for 24 h, the cells were harvested and lysed by sonication in buffer A (20 mM Tris-HCl, pH 7.8, 1 M NaCl). Proteins were first purified by Ni-NTA agarose beads and further purified by size-exclusion chromatography on a Hiload 16/60 Superdex 75 column (GE Healthcare) in buffer A. Purified proteins were dialyzed with Buffer B (20 mM Tris-HCl pH 7.8, 150 mM NaCl) and concentrated for subsequent analysis.
(§2) Isothermal titration calorimetry (ITC) assays were performed at 20 °C by using a Microcal PEAQ-ITC instrument (Malvern). We conducted the ITC experiments using SETD2 peptides for titration into hnRNP L and hnRNP LL proteins. […] The integrated heat data were analyzed using a one-site binding model by MicroCal PEAQ 1.0.0.1259-ITC Analysis Software provided by the manufacturer.

The target of assay [2] is T2, PTB RRM2 (PTB1) (Homo sapiens, UniProt P26599).
T2 construct: made in house; host or cells: Escherichia coli BL21 (DE3)
Briefly: ITC with PTB RRM2. Type of assay: binding. The note with it: ITC 20 °C; N.D. = No detectable interaction under the experiment conditions.

For assay [3], the target named is T3, hnRNP L Y257A (Homo sapiens, UniProt P14866, Y257A).
T3 construct: made in house; host or cells: Escherichia coli BL21 (DE3)
T3 sequence (P14866 189-286 Y257A): T1 sequence (P14866 189-286) with Y69A
Briefly: ITC with hnRNP L RRM2 Y257A mutant. Type of assay: binding. The note with it: ITC 20 °C; N.D. = No detectable interaction under the experiment conditions. The protocol:
as §1, §2

For assay [4], the target named is T4, hnRNP L RRM2 (residues 189-286) (human).
T4 construct: heterogeneous nuclear ribonucleoprotein L, human, RRM2 fragment residues 189-286; also called hnRNP L^WT; source: E. coli BL21 (DE3), purified (Ni-NTA, size-exclusion chromatography)
T4 chain: T1 sequence (P14866 189-286)
Briefly: ITC; SETD2 peptide (about 600 µM, syringe) titrated into the protein (about 50 µM, sample pool); 20 °C; MicroCal PEAQ-ITC; one-site binding model; three independent titrations. The note with it: both partners purified.

Assay [5] addresses T5, hnRNP LL RRM2 (human, UniProt Q8WVV9 166-268).
T5 construct: heterogeneous nuclear ribonucleoprotein L-like, human, RRM2 domain; also called hnRNP LL^WT; source: E. coli BL21 (DE3), purified (Ni-NTA, size-exclusion chromatography)
T5 sequence: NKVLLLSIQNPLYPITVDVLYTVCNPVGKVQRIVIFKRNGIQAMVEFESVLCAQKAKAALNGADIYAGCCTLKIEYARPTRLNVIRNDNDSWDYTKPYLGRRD
The description is as above. Conditions: both partners purified.

In assay [6] the target is T6, hnRNP L^L263A RRM2 (human, UniProt P14866 189-286, L263A).
T6 construct: heterogeneous nuclear ribonucleoprotein L, human, RRM2 fragment residues 189-286 as Dm1, with L263A; source: E. coli BL21 (DE3), purified (Ni-NTA, size-exclusion chromatography)
T6 sequence (looked up): T1 sequence (P14866 189-286) with L75A
The assay is described as above. Conditions: both partners purified.

Assay [7] addresses T6, hnRNP L^L263A RRM2. The description is as above. Conditions: both partners purified. The source holds these as a separate data set.
Assay [8] has as its target T7, hnRNP L^V210A RRM2 (human, UniProt P14866 189-286, V210A).
T7 construct: heterogeneous nuclear ribonucleoprotein L, human, RRM2 fragment residues 189-286 as Dm1, with V210A; source: E. coli BL21 (DE3), purified (Ni-NTA, size-exclusion chromatography)
T7 sequence (looked up): T1 sequence (P14866 189-286) with V22A
The description is as above. Conditions: both partners purified.

The target of assay [9] is T8, hnRNP L^I214A RRM2 (human, UniProt P14866 189-286, I214A).
T8 construct: heterogeneous nuclear ribonucleoprotein L, human, RRM2 fragment residues 189-286 as Dm1, with I214A; source: E. coli BL21 (DE3), purified (Ni-NTA, size-exclusion chromatography)
T8 sequence (looked up): T1 sequence (P14866 189-286) with I26A
The description is as above. Conditions: both partners purified.

The target in assay [10] is T9, hnRNP L^I256A RRM2 (human, UniProt P14866 189-286, I256A).
T9 construct: heterogeneous nuclear ribonucleoprotein L, human, RRM2 fragment residues 189-286 as Dm1, with I256A; source: E. coli BL21 (DE3), purified (Ni-NTA, size-exclusion chromatography)
T9 sequence (looked up): T1 sequence (P14866 189-286) with I68A
Described as above. Conditions: both partners purified.

For assay [11], the target named is T10, hnRNP LL^V188I RRM2 (human, UniProt Q8WVV9 166-268, V188I).
T10 construct: heterogeneous nuclear ribonucleoprotein L-like, human, RRM2 domain as Dm4, with V188I; source: E. coli BL21 (DE3), purified (Ni-NTA, size-exclusion chromatography)
T10 sequence: T5 sequence with V23I
The assay is described as above. Conditions: both partners purified.

The target of assay [12] is T11, hnRNP LL RRM2 (human, UniProt Q8WVV9 166-268).
T11 construct: hnRNP LL, human, RRM2 domain; The methods describe only the cloning of hnRNP L RRM2; all proteins were expressed in E. coli; source: E. coli BL21 (DE3), purified (Ni-NTA, size-exclusion chromatography)
T11 sequence: T5 sequence
Briefly: ITC; SETD2 peptides (about 600 µM, syringe) titrated into hnRNP L / hnRNP LL proteins (about 50 µM, cell); 20 °C; Microcal PEAQ-ITC; one-site binding model; mean of three independent experiments. Conditions: both partners purified.

The target of assay [13] is T12, hnRNP L RRM2 (residues 189-286) (human, UniProt P14866 189-286).
T12 construct: hnRNP L, human, RRM2 fragment, residues 189-286, amplified from a human brain cDNA library; Cloned into a modified pET28a vector without a thrombin cleavage site (p28a); also called hnRNP L RRM2 WT; source: E. coli BL21 (DE3), purified (Ni-NTA, size-exclusion chromatography)
T12 sequence (looked up): T1 sequence (P14866 189-286)
Described as above. The note with it: both partners purified.

In assay [14] the target is T13, hnRNP L RRM2 I256A (human, UniProt P14866 189-286, I256A).
T13 construct: hnRNP L, human, RRM2 fragment 189-286 with I256A; source: E. coli BL21 (DE3), purified (Ni-NTA, size-exclusion chromatography)
T13 sequence (looked up): T1 sequence (P14866 189-286) with I68A
The assay is described as above. Conditions: both partners purified.

The text below walks through data of publication PMC8575775, “Structural basis of the interaction between SETD2 methyltransferase and hnRNP L paralogs for governing co-transcriptional splicing” (Nature Communications, 2021).

Where a chain is given by its changes, count along the chain named. Where “and” joins values, the source holds several entries; their conditions need not be identical. Identical values can stand only once. Ends that are not written are not given here.

T2 sequence (P26599 184-260 limits assumed): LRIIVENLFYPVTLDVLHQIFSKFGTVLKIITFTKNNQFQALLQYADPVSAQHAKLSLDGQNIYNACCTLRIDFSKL

Regarding “SETD2^2113–2140: adjacent SETD2 fragment, residues 2113–2140, used as non-binding control in ITC (RNKLSTEERRKLFEQEVAQREAQKQQQQ)”, the figures for the “KD / interaction detected by ITC, in words” value in assay [1] and in assay [1] (listed as SETD2^2113-2140) were “could not detect any interaction” and “No Binding”, respectively.
Take “YPPGYPMQAYVDPSNPNAGKVLLPTP [SETD2^2167–2192]”: the “KD / interaction detected by ITC, in words” value in assay [2] is listed as “no detectable affinity”; in assay [3], “completely abolished”.
On to SNPNAGKVLLPTP (source: synthetic peptide) [SETD2^2180-2192 peptide], for which, in [4], the Kd is 11.4 µM and 11.8 µM and 11.5 µM; the “stoichiometry N” value was 1.01 and 1 and 0.96. In addition, in [5], the Kd was 20.2 µM and 19.8 µM and 20.1 µM (2×); the “stoichiometry N” value is 0.82 and 0.83 and 0.89.
Take YPPGYPMQAYVDPSNPNAGKVLLPTP (peptide, UniProt Q9BYW2 2167-2192, looked up, source: synthetic peptide) [SETD2^2167-2192 peptide]: the “stoichiometry N” value is 0.97 in [6]; 0.93 and 0.92 in [4]; 0.85 and 0.98 and 0.93 in [7]; 0.93 and 0.78 and 1.13 in [8]; 1.01 and 1.05 and 1.18 in assay [9]; 1.3 and 1.31 and 1.18 in assay [10]. The “stoichiometry N” value in assay [11] was 1.1 and 0.96 and 1.12; in assay [5], 0.95 and 1.04. Further, the equilibrium dissociation constant (Kd) in [4] is 5.83 µM and 5.91 µM; in [7] it was 14.4 µM and 13.6 µM and 13.2 µM and 13.7 µM; in assay [8], 9.1 µM and 8.9 µM and 9.33 µM and 9.11 µM; in assay [9], 15.6 µM and 16.3 µM and 16.2 µM and 16 µM; in assay [10], 34.8 µM and 35.8 µM and 35 µM and 35.2 µM; in [11] it was 6.16 µM and 6.44 µM and 6.3 µM. In addition, the Kd in assay [5] was 8.58 µM and 8.04 µM and 8.19 µM.
For the molecule YPPGYPMQAYVDPSNPNAGKVLLPTP (peptide, UniProt Q9BYW2 2167-2192, looked up, source: synthetic peptide) [SETD2 2167–2192 peptide], the Kd in assay [12] is 8.27 µM. Moreover, in [13], the Kd came out at 5.86 µM and the “stoichiometry N” value turned out to be 0.93. For the same molecule, the “fold decrease in binding against wild-type hnRNP L RRM2” value in [14] came out at 9 fold.

B1: SETD2 2180–2192 peptide (peptide)
peptide: SNPNAGKVLLPTP
notes: also called truncated peptide; source: synthetic peptide
B1: binding in assay [13] was characterised by a dissociation constant (Kd) of 11.6 µM.
